# Test results published in paper PMC12098658.
# What was measured:
# [1] = biological target: GFP-JMY WH2#1 (aa841-883) (Mus musculus) (UniProt Q9QXM1); test: co-IP; as a9 but lysate/antibody mixture with 2 µM Ca2+; actin CoIP/GFP IP ratio as percent difference from the Ca2+-free (1 mM EGTA) condition
# [2] = biological target: GFP-JMY CT (aa821-983) (Mus musculus) (UniProt Q9QXM1); test: as above
# [3] = biological target: GFP-JMY CT (aa821-983) (Mus musculus) (UniProt Q9QXM1); test: co-IP; L929 lysate with GFP-JMY CT, continuous 2 µM Ca2+ for 2 h, compared with continuous EGTA; anti-GFP immunoprecipitation, quantitative immunoblot
# Chain of GFP-JMY CT (aa821-983) (Mus musculus) (Q9QXM1 821-983): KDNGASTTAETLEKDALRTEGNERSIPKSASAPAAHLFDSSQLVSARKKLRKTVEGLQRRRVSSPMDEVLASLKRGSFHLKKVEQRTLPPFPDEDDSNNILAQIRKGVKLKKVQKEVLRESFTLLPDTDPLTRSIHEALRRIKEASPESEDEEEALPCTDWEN
# Chain of GFP-JMY WH2#1 (aa841-883) (Mus musculus) (Q9QXM1 841-883): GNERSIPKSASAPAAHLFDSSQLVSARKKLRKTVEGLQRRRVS
substance,measurement,setting,value
endogenous actin from L929 cells (from UniProt P60710 1-375) (natural protein),percent change of coimmunoprecipitated actin with 2 µM Ca2+ against the Ca2+-free condition,[1],< -80%
same,percent change of coimmunoprecipitated actin with 2 µM Ca2+ against the Ca2+-free condition,[2],< -80%
same,percent change of coimmunoprecipitated actin with 2 µM Ca2+ against the Ca2+-free condition,[3],-80%
